Reference: PMC6550315
Like-named read-outs stand apart in the source and are kept apart here. Each block holds one molecule with its values, some of them ahead of it.

What was measured:
[1] = target: Kif7DM (dimeric, non GFP-tagged Kif7, aa. 1–543), held on an anti-penta-HIS biosensor (human) (UniProt Q2M1P5); test: BLI
[2] = target: Kif7DM (dimeric, non GFP-tagged Kif7, aa. 1–543), held on an anti-penta-HIS biosensor (human) (UniProt Q2M1P5); test: BLI; remark: listed apart in the source
[3] = target: Kif7DM (dimeric, non GFP-tagged Kif7, aa. 1–543), held on an anti-penta-HIS biosensor (human) (UniProt Q2M1P5); test: BLI; remark: listed apart in the source
[4] = target: GTP-polymerized Taxol-stabilized microtubules (bovine tubulin) (bovine) (UniProt Q6B856); test: co-sedimentation
[5] = target: GMPCPP-stabilized microtubules (GMPCPP-bound microtubule seeds) (bovine (lab-purified from bovine brain; Cytoskeleton tubulin used interchangeably)) (UniProt Q6B856); test: TIRF microscopy
[6] = target: GMPCPP+GDP microtubule cap (bovine (lab-purified from bovine brain; Cytoskeleton tubulin used interchangeably)) (UniProt Q6B856); test: TIRF microscopy
[7] = target: GDP-tubulin microtubule segment (GTP►GDP growth) (bovine (lab-purified from bovine brain; Cytoskeleton tubulin used interchangeably)) (UniProt Q6B856); test: TIRF microscopy
[8] = target: GTP-polymerized Taxol-stabilized microtubules (bovine tubulin) (bovine) (UniProt Q6B856); test: co-sedimentation; remark: listed apart in the source
[9] = target: GTP-polymerized Taxol-stabilized microtubules (bovine tubulin) (bovine) (UniProt Q6B856); test: co-sedimentation; remark: listed apart in the source
[10] = target: GMPCPP-stabilized microtubules (GMPCPP-bound microtubule seeds) (bovine (lab-purified from bovine brain; Cytoskeleton tubulin used interchangeably)) (UniProt Q6B856); test: TIRF microscopy; remark: listed apart in the source
[11] = target: GMPCPP+GDP microtubule cap (bovine (lab-purified from bovine brain; Cytoskeleton tubulin used interchangeably)) (UniProt Q6B856); test: TIRF microscopy; remark: listed apart in the source
[12] = target: GDP-tubulin microtubule segment (GTP►GDP growth) (bovine (lab-purified from bovine brain; Cytoskeleton tubulin used interchangeably)) (UniProt Q6B856); test: TIRF microscopy; remark: listed apart in the source
[13] = target: GMPCPP-stabilized microtubules (GMPCPP-bound microtubule seeds) (bovine (lab-purified from bovine brain; Cytoskeleton tubulin used interchangeably)) (UniProt Q6B856); test: TIRF microscopy; remark: listed apart in the source
[14] = target: GTPγS microtubule segment (bovine (lab-purified from bovine brain; Cytoskeleton tubulin used interchangeably)) (UniProt Q6B856); test: TIRF microscopy
[15] = target: GMPCPP-stabilized microtubules (GMPCPP-bound microtubule seeds) (bovine (lab-purified from bovine brain; Cytoskeleton tubulin used interchangeably)) (UniProt Q6B856); test: TIRF microscopy; remark: listed apart in the source
[16] = target: GMPCPP+GDP microtubule cap (bovine (lab-purified from bovine brain; Cytoskeleton tubulin used interchangeably)) (UniProt Q6B856); test: TIRF microscopy; remark: listed apart in the source
[17] = target: GDP-tubulin microtubule segment (GTP►GDP growth) (bovine (lab-purified from bovine brain; Cytoskeleton tubulin used interchangeably)) (UniProt Q6B856); test: TIRF microscopy; remark: listed apart in the source
[18] = target: GMPCPP-stabilized microtubules (GMPCPP-bound microtubule seeds) (bovine (lab-purified from bovine brain; Cytoskeleton tubulin used interchangeably)) (UniProt Q6B856); test: TIRF microscopy; remark: listed apart in the source
[19] = target: GTP-polymerized Taxol-stabilized microtubules (bovine tubulin) (bovine) (UniProt Q6B856); test: co-sedimentation; remark: listed apart in the source
[20] = target: GMPCPP-stabilized microtubules (GMPCPP-bound microtubule seeds) (bovine (lab-purified from bovine brain; Cytoskeleton tubulin used interchangeably)) (UniProt Q6B856); test: TIRF microscopy; remark: listed apart in the source
[21] = target: GMPCPP+GDP microtubule cap (bovine (lab-purified from bovine brain; Cytoskeleton tubulin used interchangeably)) (UniProt Q6B856); test: TIRF microscopy; remark: listed apart in the source
[22] = target: GDP-tubulin microtubule segment (GTP►GDP growth) (bovine (lab-purified from bovine brain; Cytoskeleton tubulin used interchangeably)) (UniProt Q6B856); test: TIRF microscopy; remark: listed apart in the source

Kd [1]: 8100 nM | Kd [2]: 1640 nM | Kd [3]: 4980 nM
Molecule: soluble tubulin (α-β-tubulin heterodimer) (from UniProt Q6B856 1-445) (complex)

Kd [4]: 850 nM
Molecule: Kif7_(DM-L8)^KHC-GFP (Kif7 1–543 with loop L8 replaced by kinesin-1 L8) (from UniProt Q2M1P5 1-543) (domain or fragment)

GFP fluorescence intensity per pixel [5]: 693 | GFP fluorescence intensity per pixel [6]: 401 | GFP fluorescence intensity per pixel [7]: 216 | Kd [8]: 810 nM | Kd [9]: 780 nM | GFP fluorescence intensity per pixel [10]: 592 | GFP fluorescence intensity per pixel [11]: 338 | GFP fluorescence intensity per pixel [12]: 208 | GFP fluorescence intensity at curvature |κ0|, 10 nM Kif7DM-GFP [13]: 164 | GFP fluorescence intensity at curvature |κ0|, 50 nM Kif7DM-GFP [13]: 278 | GFP fluorescence intensity at curvature |κ1|, 10 nM Kif7DM-GFP [13]: 168 | GFP fluorescence intensity at curvature |κ1|, 50 nM Kif7DM-GFP [13]: 285 | GFP fluorescence intensity at curvature |κ2|, 10 nM Kif7DM-GFP [13]: 168 | GFP fluorescence intensity at curvature |κ2|, 50 nM Kif7DM-GFP [13]: 280 | GFP fluorescence intensity at curvature |κ3|, 10 nM Kif7DM-GFP [13]: 164 | GFP fluorescence intensity at curvature |κ3|, 50 nM Kif7DM-GFP [13]: 283 | GFP fluorescence intensity per pixel [13]: 218 | GFP fluorescence intensity per pixel [14]: 511 | GFP fluorescence intensity per pixel [15]: 53 | GFP fluorescence intensity per pixel [16]: 37.1 | GFP fluorescence intensity per pixel [17]: 8.6 | GFP fluorescence intensity per pixel [18]: 836 | Kd [4]: 540 nM | Kd [19]: 430 nM | GFP fluorescence intensity per pixel [20]: 202 | GFP fluorescence intensity per pixel [21]: 80.8 | GFP fluorescence intensity per pixel [22]: 14.1
B1: Kif7DM-GFP (dimeric Kif7, aa. 1–543, C-terminal GFP) (domain or fragment)
chain: MGLEAQRLPGAEEAPVRVALRVRPLLPKELLHGHQSCLQVEPGLGRVTLGRDRHFGFHVVLAEDAGQEAVYQACVQPLLEAFFEGFNATVFAYGQTGSGKTYTMGEASVASLLEDEQGIVPRAMAEAFKLIDENDLLDCLVHVSYLEVYKEEFRDLLEVGTASRDIQLREDERGNVVLCGVKEVDVEGLDEVLSLLEMGNAARHTGATHLNHLSSRSHTVFTVTLEQRGRAPSRLPRPAPGQLLVSKFHFVDLAGSERVLKTGSTGERLKESIQINSSLLALGNVISALGDPQRRGSHIPYRDSKITRILKDSLGGNAKTVMIACVSPSSSDFDETLNTLNYASRAQNIRNRATVNWRPEAERPPEETASGARGPPRHRSETRIIHRGRRAPGPATASAAAAMRLGAECARYRACTDAAYSLLRELQAEPGLPGAAARKVRDWLCAVEGERSALSSASGPDSGIESASVEDQAAQGAGGRKEDEGAQQLLTLQNQVARLEEENRDFLAALEDAMEQYKLQSDRLREQQEEMVELRLRLELVRP
